{
  "source": "paper doi:10.1101/2025.11.30.690581",
  "origin": "cited, not measured here",
  "key": {"Lys92": {"target": "Lys92 (UniProt position 174, RGLAYKYADGK)", "assay": "stability", "details": "apparent pKa of the native-state ensemble in the reference Δ+PHS background"}, "Lys66": {"target": "Lys66 (UniProt position 148, FTKKMKENAKK)", "assay": "stability", "details": "apparent pKa of the native-state ensemble in the reference Δ+PHS background"}},
  "data": [
    {"substance": "Staphylococcal nuclease Δ+PHS I92K (reference protein with Lys-92) (Staphylococcus aureus; G50F;V51N;P117G;H124L;S128A;del44-49;I92K)", "values": [
      {"measurement": "pKa", "setting": "Lys92", "result": 5.2}
    ]},
    {"substance": "Staphylococcal nuclease Δ+PHS V66K (reference protein with Lys-66) (Staphylococcus aureus; G50F;V51N;P117G;H124L;S128A;del44-49;V66K)", "values": [
      {"measurement": "pKa", "setting": "Lys66", "result": 5.7}
    ]}
  ]
}
